To fix the notation:
T1: FcgRIIa H (FcγRIIa type H) extracellular domain with C-terminal His tag (human, UniProt P12318 34-217)
T1 construct: extracellular domain; also called FcγRIIa H; not shown: His tag attached to the C terminus
T1 sequence (looked up): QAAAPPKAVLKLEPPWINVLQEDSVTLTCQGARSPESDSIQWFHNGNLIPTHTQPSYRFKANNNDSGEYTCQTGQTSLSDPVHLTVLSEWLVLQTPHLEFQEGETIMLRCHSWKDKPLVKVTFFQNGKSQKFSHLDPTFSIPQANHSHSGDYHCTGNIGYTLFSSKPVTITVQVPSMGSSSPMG

T2: FcgRIIb (FcγRIIb) extracellular domain with C-terminal His tag (human, UniProt P31994 43-217)
T2 construct: extracellular domain; not shown: His tag attached to the C terminus
T2 sequence (looked up): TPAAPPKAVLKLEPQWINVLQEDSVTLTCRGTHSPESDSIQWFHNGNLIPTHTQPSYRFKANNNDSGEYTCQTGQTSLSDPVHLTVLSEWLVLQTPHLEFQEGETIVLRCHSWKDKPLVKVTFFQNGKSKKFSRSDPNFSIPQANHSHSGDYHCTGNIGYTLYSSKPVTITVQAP

T3: FcgRIIa R (FcγRIIa type R) extracellular domain with C-terminal His tag (human, UniProt P12318 34-217)
T3 construct: extracellular domain; also called FcγRIIa R; not shown: His tag attached to the C terminus
T3 sequence (looked up): T1 sequence (looked up) with H134R

B1: H240-Kn061/H240-Hl071/L73-k0 variant with Y235A in H240-Kn061 (antibody, human IgG1, kappa)
heavy 1: QDQLVQSGAEVKKPGASVKVSCKASGFNIKDTYIQWVRQAPGQGLEWMGRIDPLRKQTKYREKFEGRVTITADTSTNTAYMELSSLRSEDTAVYYCVRSGREFDYWGQGTLVTVSSASTKGPSVFPLAPSSKSTSGGTAALGCLVKDYFPEPVTVSWNSGALTSGVHTFPAVLQSSGLYSLSSVVTVPSSSLGTQTYICNVNHKPSNTKVDKKVEPKSCDKTHTCPPCPAPEYAWGPSVFLFPPKPKDTLMISRTPEVTCVVVDVSDEDPEVKFNWYVDGVEVHNAKTKPREEQYNATYRVVSVLTVLHQDWLNGKEYKCKVSNKALPAPIEKTISKAKGQPREPQVCTLPPSRDELTKNQVSLWCLVKGFYPSDIAVEWESNGQPENNYKTTPPVLDSDGSFFLYSKLTVDKSRWQQGNVFSCSVMHEALHNHYTQKSLSLSP
heavy 2: QDQLVQSGAEVKKPGASVKVSCKASGFNIKDTYIQWVRQAPGQGLEWMGRIDPLRKQTKYREKFEGRVTITADTSTNTAYMELSSLRSEDTAVYYCVRSGREFDYWGQGTLVTVSSASTKGPSVFPLAPSSKSTSGGTAALGCLVKDYFPEPVTVSWNSGALTSGVHTFPAVLQSSGLYSLSSVVTVPSSSLGTQTYICNVNHKPSNTKVDKKVEPKSCDKTHTCPPCPAPELLGGPSVFLFPPKPKDTLMISRTPEVTCVVVDVSHEDPEVKFNWYVDGVEVHNAKTKPREEQYNSTYRVVSVLTVLHQDWLNGKEYKCKVSNDALPMPIEETISKAKGQPREPQVYTLPPSRCELTKNQVSLSCAVKGFYPSDIAVEWESNGQPENNYKTTPPVLDSDGSFFLVSKLTVDKSRWQQGNVFSCSVMHEALHNHYTQKSLSLSP
light: DIQMTQSPSSLSASVGDRVTITCRASQDIHKYIAWYQQKPGQAPRLLIQYTSTLQPGVPSRFSGSGSGTDYTFTISSLQPEDIATYYCLQYEQLRTFGGGTKVEIKRTVAAPSVFIFPPSDEQLKSGTASVVCLLNNFYPREAKVQWKVDNALQSGNSQESVTEQDSKDSTYSLSSTLTLSKADYEKHKVYACEVTHQGLSSPVTKSFNRGEC
notes: anti-epiregulin heterodimerized IgG1; also called H240-Kn061 Y235A
B2: H240-Kn061/H240-Hl071/L73-k0 variant with Y234I in H240-Kn061 (antibody, human IgG1, kappa)
heavy 1: B1 heavy 1 with Y233I, A234Y
heavy 2: B1 heavy 2
light: B1 light
notes: anti-epiregulin heterodimerized IgG1; also called H240-Kn061 Y234I
B3: H240-Kn061/H240-Hl071/L73-k0 variant with S239M in H240-Kn061 (antibody, human IgG1, kappa)
heavy 1: B1 heavy 1 with A234Y, S238M
heavy 2: B1 heavy 2
light: B1 light
notes: anti-epiregulin heterodimerized IgG1; also called H240-Kn061 S239M
B4: H240-Kn061/H240-Hl071/L73-k0 variant with S239I in H240-Kn061 (antibody, human IgG1, kappa)
heavy 1: B1 heavy 1 with A234Y, S238I
heavy 2: B1 heavy 2
light: B1 light
notes: anti-epiregulin heterodimerized IgG1; also called H240-Kn061 S239I
B5: H240-Kn061/H240-Hl071/L73-k0 variant with A231V in H240-Kn061 (antibody, human IgG1, kappa)
heavy 1: B1 heavy 1 with A230V, A234Y
heavy 2: B1 heavy 2
light: B1 light
notes: anti-epiregulin heterodimerized IgG1; also called H240-Kn061 A231V
B6: H240-Kn061/H240-Hl071/L73-k0 variant with F241N in H240-Hl071 (antibody, human IgG1, kappa)
heavy 1: B1 heavy 1 with A234Y
heavy 2: B1 heavy 2 with F240N
light: B1 light
notes: anti-epiregulin heterodimerized IgG1; also called H240-Hl071 F241N
B7: H240-Kn061/H240-Hl071/L73-k0 variant with S239L in H240-Kn061 (antibody, human IgG1, kappa)
heavy 1: B1 heavy 1 with A234Y, S238L
heavy 2: B1 heavy 2
light: B1 light
notes: anti-epiregulin heterodimerized IgG1; also called H240-Kn061 S239L
B8: H240-Kn061/H240-Hl071/L73-k0 variant with V240H in H240-Hl071 (antibody, human IgG1, kappa)
heavy 1: B1 heavy 1 with A234Y
heavy 2: B1 heavy 2 with V239H
light: B1 light
notes: anti-epiregulin heterodimerized IgG1; also called H240-Hl071 V240H
B9: H240-Kn061/H240-Hl071/L73-k0 variant with Y234L in H240-Kn061 (antibody, human IgG1, kappa)
heavy 1: B1 heavy 1 with Y233L, A234Y
heavy 2: B1 heavy 2
light: B1 light
notes: anti-epiregulin heterodimerized IgG1; also called H240-Kn061 Y234L
B10: H240-Kn061/H240-Hl071/L73-k0 variant with A231Q in H240-Kn061 (antibody, human IgG1, kappa)
heavy 1: B1 heavy 1 with A230Q, A234Y
heavy 2: B1 heavy 2
light: B1 light
notes: anti-epiregulin heterodimerized IgG1; also called H240-Kn061 A231Q
B11: H240-Kn061/H240-Hl071/L73-k0 variant with A231E in H240-Kn061 (antibody, human IgG1, kappa)
heavy 1: B1 heavy 1 with A230E, A234Y
heavy 2: B1 heavy 2
light: B1 light
notes: anti-epiregulin heterodimerized IgG1; also called H240-Kn061 A231E
B12: H240-Kn061/H240-Hl071/L73-k0 variant with S239V in H240-Kn061 (antibody, human IgG1, kappa)
heavy 1: B1 heavy 1 with A234Y, S238V
heavy 2: B1 heavy 2
light: B1 light
notes: anti-epiregulin heterodimerized IgG1; also called H240-Kn061 S239V

Positions count from the first letter of the chain named. Numbers in names are those of the source.

T4 sequence (P08637 17-208 F176V limits assumed): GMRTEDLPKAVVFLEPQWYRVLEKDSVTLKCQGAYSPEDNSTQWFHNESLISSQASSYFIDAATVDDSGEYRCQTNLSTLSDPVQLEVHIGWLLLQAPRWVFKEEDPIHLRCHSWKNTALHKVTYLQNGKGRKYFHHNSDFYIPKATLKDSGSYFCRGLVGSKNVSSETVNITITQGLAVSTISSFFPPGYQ

One assay addresses T4, FcgRIIIa V (FcγRIIIa type V) extracellular domain with C-terminal His tag (human, UniProt P08637 17-208).
T4 construct: extracellular domain; also called FcγRIIIa V; not shown: His tag attached to the C terminus
The assay can be described thus: SPR (Biacore); KD of H240-Kn061/H240-Hl071/L73-k0 divided by KD of the variant. The method, then: (§1) The antibodies were assessed for the binding to each FcgR. […] The resultant value was defined as relative KD, and used as an assessment indicator.
(§2) Analysis of interaction between objective antibody and the FcγR was carried out using Biacore T100 (GE Healthcare), Biacore T200, Biacore A100, and Biacore 4000. HBS-EP+ (GE Healthcare) was used as the running buffer, and the measurement temperature was set to 25° C. Chips produced by immobilizing the antigen peptide by the amine coupling method to a Series S sensor Chip CM5 (GE Healthcare), chips produced by allowing preliminarily biotinylated antigen peptides to interact with and immobilize onto a Series S Sensor Chip SA (certified) (GE Healthcare), chips produced by immobilizing Protein L (ACTIGEN, BioVision) to Series S Sencor Chip CM5 (GE Healthcare), or chips produced by immobilizing Protein A/G (Thermo Scientific) to Series S Sencor Chip CM5 (GE Healthcare) were used. Antibodies of interest were captured onto these chips, and allowed to interact to each FcγR diluted with running buffer.
For the molecule B1, the “relative KD” value was determined as 1.3 ratio.

In the case of B2, the “relative KD” value was found to be 1.3 ratio.

On to B3, for which the “relative KD” value was determined as 2.8 ratio.

In the case of B4, the “relative KD” value was found to be 3.4 ratio.

For the molecule B5, the “relative KD” value was 1.5 ratio.

On to B6, for which the “relative KD” value came to 0.7 ratio.

Take B7: the “relative KD” value worked out at 3.7 ratio.

As for B8, the “relative KD” value was 1 ratio.

For the molecule B9, the “relative KD” value is 1.2 ratio.

As for B10, the “relative KD” value came out at 1.7 ratio.

Take B11: the “relative KD” value came out at 2 ratio.

Turning to B12, the “relative KD” value worked out at 2.9 ratio.

In the next assay the target is T1, FcgRIIa H (FcγRIIa type H) …. The description is as above. The method, then: as §1, §2
On to B1, for which the “relative KD” value is 0.5 ratio.

With B2, the “relative KD” value turned out to be 2.6 ratio.

In the case of B3, the “relative KD” value was found to be 2 ratio.

For the molecule B4, the “relative KD” value was 2.1 ratio.

For the molecule B5, the “relative KD” value was determined as 1.6 ratio.

Consider B6, for which the “relative KD” value is 3.5 ratio.

With B7, the “relative KD” value worked out at 2.4 ratio.

B8: the “relative KD” value amounted to 0.8 ratio.

For the molecule B9, the “relative KD” value worked out at 1.5 ratio.

On to B10, for which the “relative KD” value was 1.5 ratio.

With B11, the “relative KD” value stood at 1.6 ratio.

For the molecule B12, the “relative KD” value was determined as 2.4 ratio.

The target in a further assay is T5, FcgRIIIa F (FcγRIIIa type F) extracellular domain with C-terminal His tag (human, UniProt P08637 17-208).
T5 construct: extracellular domain; also called FcγRIIIa F; 3aF; not shown: His tag attached to the C terminus
T5 sequence (P08637 17-208): as the sequence (P08637 17-208 F176V limits assumed) above, with V160F counted along it
The assay is described as above. The protocol: as §1, §2
In the case of B1, the “relative KD” value is 1.2 ratio.

With B2, the “relative KD” value is 1.2 ratio.

Take B3: the “relative KD” value was 2.2 ratio.

In the case of B4, the “relative KD” value was 3 ratio.

Regarding B5, the “relative KD” value came to 1.3 ratio.

B6: the “relative KD” value came to 0.8 ratio.

For the molecule B7, the “relative KD” value is 3.4 ratio.

In the case of B8, the “relative KD” value is 1.3 ratio.

In the case of B9, the “relative KD” value was 1.1 ratio.

For the molecule B10, the “relative KD” value stood at 1.5 ratio.

Turning to B11, the “relative KD” value is 1.8 ratio.

With B12, the “relative KD” value came out at 2.4 ratio.

Another assay addresses T2, FcgRIIb (FcγRIIb) extracellular domain …. The assay is described as above. The method, then:
as §1, §2
For the molecule B1, the “relative KD” value was found to be 0.2 ratio.

B2: the “relative KD” value turned out to be 7.7 ratio.

In the case of B3, the “relative KD” value was found to be 2.2 ratio.

In the case of B4, the “relative KD” value came out at 3.1 ratio.

Regarding B5, the “relative KD” value was 1.6 ratio.

Regarding B6, the “relative KD” value was 1.1 ratio.

Consider B7, for which the “relative KD” value was 3.4 ratio.

As to B8, the “relative KD” value was found to be 0.3 ratio.

Turning to B9, the “relative KD” value was 3.5 ratio.

On to B10, for which the “relative KD” value was 1.4 ratio.

B11: the “relative KD” value was 1.4 ratio.

In the case of B12, the “relative KD” value is 3.4 ratio.

For the next assay, the target named is T3, FcgRIIa R (FcγRIIa type R) …. Described as above. The method, then: as §1, §2
As for B1, the “relative KD” value was determined as 0.5 ratio.

B2: the “relative KD” value came to 4.1 ratio.

With B3, the “relative KD” value came to 3.2 ratio.

Consider B4, for which the “relative KD” value is 4.4 ratio.

B5: the “relative KD” value worked out at 1.6 ratio.

On to B6, for which the “relative KD” value amounted to 3.8 ratio.

Consider B7, for which the “relative KD” value worked out at 4.8 ratio.

Take B8: the “relative KD” value was determined as 0.7 ratio.

As for B9, the “relative KD” value turned out to be 2.2 ratio.

As for B10, the “relative KD” value is 1.5 ratio.

For the molecule B11, the “relative KD” value came out at 1.7 ratio.

Turning to B12, the “relative KD” value stood at 4.2 ratio.

The target in the next assay is T4, FcgRIIIa V (FcγRIIIa type V) …. The assay is described as above. The source holds these as a separate data set.
In the case of B1, the “relative KD” value turned out to be 1.3 ratio.

A further assay has as its target T5, FcgRIIIa F (FcγRIIIa type F) …. The assay is described as above. The source holds these as a separate data set.
As to B1, the “relative KD” value was 1.2 ratio.

The next assay deals with T2, FcgRIIb (FcγRIIb) extracellular domain …. Described as above. This is another data set of the same source.
For B1, the “relative KD” value is 0.2 ratio.

Source of the values: patent US20150344570A1 (published 2015).
